# B1: human monoclonal antibody CRJB (antibody, V domains shown)
# VH: QITLKETGPTLVKPTQTLTLTCTFSGFSLSTSGVGVGWIRQPPGKALEWVTLIYWDDDKRYSPSLENRVTIRKDTSKNQVALTMTNMDPLDTGTYYCAHRQHISSFPWFDSWGQGTLVTVSS
# VL: SYVLTQPPSVSVAPGKTARINCGGNNIEYRSVHWYQQKSGQAPVAVIYDNSDRPSGIPERFSGSKSGNTATLTISRVEAGDEADYYCQVWDISSDVVFGGGTKLTVLG
# Columns and labels:
# Assay in all cases: PEPSCAN ELISA, looped peptide, antibody 10 µg/ml
# [1] = biological target: looped/cyclic peptide … (rabies virus strain ERA)
# [2] = biological target: looped/cyclic peptide … (rabies virus strain ERA); remark: listed apart in the source
# [3] = biological target: looped/cyclic peptide … (rabies virus strain ERA); remark: listed apart in the source
# [4] = biological target: looped/cyclic peptide … (rabies virus strain ERA); remark: listed apart in the source
# [5] = biological target: looped/cyclic peptide … (rabies virus strain ERA); remark: listed apart in the source
# [6] = biological target: looped/cyclic peptide … (rabies virus strain ERA); remark: listed apart in the source
# [7] = biological target: looped/cyclic peptide … (rabies virus strain ERA); remark: listed apart in the source
# [8] = biological target: looped/cyclic peptide … (rabies virus strain ERA); remark: listed apart in the source
# [9] = biological target: looped/cyclic peptide … (rabies virus strain ERA); remark: listed apart in the source
# [10] = biological target: looped/cyclic peptide … (rabies virus strain ERA); remark: listed apart in the source
# [11] = biological target: looped/cyclic peptide … (rabies virus strain ERA); remark: listed apart in the source
# [12] = biological target: looped/cyclic peptide … (rabies virus strain ERA); remark: listed apart in the source
# [13] = biological target: looped/cyclic peptide … (rabies virus strain ERA); remark: listed apart in the source
# [14] = biological target: looped/cyclic peptide … (rabies virus strain ERA); remark: listed apart in the source
# [15] = biological target: looped/cyclic peptide … (rabies virus strain ERA); remark: listed apart in the source
# [16] = biological target: looped/cyclic peptide … (rabies virus strain ERA); remark: listed apart in the source
# [17] = biological target: looped/cyclic peptide … (rabies virus strain ERA); remark: listed apart in the source
# [18] = biological target: looped/cyclic peptide DIHHLSCPNNLVVED (rabies virus strain ERA)
# [19] = biological target: looped/cyclic peptide […] (rabies virus strain ERA)
# [20] = biological target: looped/cyclic peptide … (rabies virus strain ERA); remark: listed apart in the source
# [21] = biological target: looped/cyclic peptide … (rabies virus strain ERA); remark: listed apart in the source
# [22] = biological target: looped/cyclic peptide … (rabies virus strain ERA); remark: listed apart in the source
# [23] = biological target: looped/cyclic peptide … (rabies virus strain ERA); remark: listed apart in the source
# [24] = biological target: looped/cyclic peptide … (rabies virus strain ERA); remark: listed apart in the source
# [25] = biological target: looped/cyclic peptide … (rabies virus strain ERA); remark: listed apart in the source
# [26] = biological target: looped/cyclic peptide … (rabies virus strain ERA); remark: listed apart in the source
# [27] = biological target: looped/cyclic peptide … (rabies virus strain ERA); remark: listed apart in the source
# [28] = biological target: looped/cyclic peptide … (rabies virus strain ERA); remark: listed apart in the source
# [29] = biological target: looped/cyclic peptide … (rabies virus strain ERA); remark: listed apart in the source
# [30] = biological target: looped/cyclic peptide … (rabies virus strain ERA); remark: listed apart in the source
# [31] = biological target: looped/cyclic peptide … (rabies virus strain ERA); remark: listed apart in the source
# [32] = biological target: looped/cyclic peptide … (rabies virus strain ERA); remark: listed apart in the source
# [33] = biological target: looped/cyclic peptide … (rabies virus strain ERA); remark: listed apart in the source
# [34] = biological target: looped/cyclic peptide … (rabies virus strain ERA); remark: listed apart in the source
# [35] = biological target: looped/cyclic peptide … (rabies virus strain ERA); remark: listed apart in the source
# [36] = biological target: looped/cyclic peptide … (rabies virus strain ERA); remark: listed apart in the source
# [37] = biological target: looped/cyclic peptide … (rabies virus strain ERA); remark: listed apart in the source
# [38] = biological target: looped/cyclic peptide … (rabies virus strain ERA); remark: listed apart in the source
# [39] = biological target: looped/cyclic peptide … (rabies virus strain ERA); remark: listed apart in the source
# [40] = biological target: looped/cyclic peptide … (rabies virus strain ERA); remark: listed apart in the source
# [41] = biological target: looped/cyclic peptide … (rabies virus strain ERA); remark: listed apart in the source
# [42] = biological target: looped/cyclic peptide … (rabies virus strain ERA); remark: listed apart in the source
# [43] = biological target: looped/cyclic peptide … (rabies virus strain ERA); remark: listed apart in the source
# [44] = biological target: looped/cyclic peptide … (rabies virus strain ERA); remark: listed apart in the source
# [45] = biological target: looped/cyclic peptide … (rabies virus strain ERA); remark: listed apart in the source
# [46] = biological target: looped/cyclic peptide … (rabies virus strain ERA); remark: listed apart in the source
# [47] = biological target: looped/cyclic peptide … (rabies virus strain ERA); remark: listed apart in the source
# [48] = biological target: looped/cyclic peptide … (rabies virus strain ERA); remark: listed apart in the source
# [49] = biological target: looped/cyclic peptide … (rabies virus strain ERA); remark: listed apart in the source
# [50] = biological target: looped/cyclic peptide … (rabies virus strain ERA); remark: listed apart in the source
# [51] = biological target: looped/cyclic peptide … (rabies virus strain ERA); remark: listed apart in the source
# [52] = biological target: looped/cyclic peptide … (rabies virus strain ERA); remark: listed apart in the source
# [53] = biological target: looped/cyclic peptide … (rabies virus strain ERA); remark: listed apart in the source
# [54] = biological target: looped/cyclic peptide … (rabies virus strain ERA); remark: listed apart in the source
# [55] = biological target: looped/cyclic peptide … (rabies virus strain ERA); remark: listed apart in the source
# [56] = biological target: looped/cyclic peptide … (rabies virus strain ERA); remark: listed apart in the source
# [57] = biological target: looped/cyclic peptide … (rabies virus strain ERA); remark: listed apart in the source
# [58] = biological target: looped/cyclic peptide … (rabies virus strain ERA); remark: listed apart in the source
# [59] = biological target: looped/cyclic peptide … (rabies virus strain ERA); remark: listed apart in the source
# [60] = biological target: looped/cyclic peptide … (rabies virus strain ERA); remark: listed apart in the source
# [61] = biological target: looped/cyclic peptide … (rabies virus strain ERA); remark: listed apart in the source
# [62] = biological target: looped/cyclic peptide … (rabies virus strain ERA); remark: listed apart in the source
# [63] = biological target: looped/cyclic peptide … (rabies virus strain ERA); remark: listed apart in the source
# [64] = biological target: looped/cyclic peptide … (rabies virus strain ERA); remark: listed apart in the source
# [65] = biological target: looped/cyclic peptide … (rabies virus strain ERA); remark: listed apart in the source
# [66] = biological target: looped/cyclic peptide … (rabies virus strain ERA); remark: listed apart in the source
# [67] = biological target: looped/cyclic peptide … (rabies virus strain ERA); remark: listed apart in the source
# [68] = biological target: looped/cyclic peptide … (rabies virus strain ERA); remark: listed apart in the source
# [69] = biological target: looped/cyclic peptide … (rabies virus strain ERA); remark: listed apart in the source
# [70] = biological target: looped/cyclic peptide … (rabies virus strain ERA); remark: listed apart in the source
# [71] = biological target: looped/cyclic peptide … (rabies virus strain ERA); remark: listed apart in the source
# [72] = biological target: looped/cyclic peptide … (rabies virus strain ERA); remark: listed apart in the source
# [73] = biological target: looped/cyclic peptide … (rabies virus strain ERA); remark: listed apart in the source
# [74] = biological target: looped/cyclic peptide … (rabies virus strain ERA); remark: listed apart in the source
# [75] = biological target: looped/cyclic peptide … (rabies virus strain ERA); remark: listed apart in the source
binder,measurement,setting,value
B1,OD value,[1],64 OD
same,OD value,[2],93 OD
same,OD value,[3],71 OD
same,OD value,[4],78 OD
same,OD value,[5],55 OD
same,OD value,[6],92 OD
same,OD value,[7],75 OD
same,OD value,[8],62 OD
same,OD value,[9],83 OD
same,OD value,[10],104 OD
same,OD value,[11],59 OD
same,OD value,[12],83 OD
same,OD value,[13],88 OD
same,OD value,[14],90 OD
same,OD value,[15],90 OD
same,OD value,[16],77 OD
same,OD value,[17],71 OD
same,OD value,[18],48 OD
same,OD value,[19],71 OD
same,OD value,[20],66 OD
same,OD value,[21],72 OD
same,OD value,[22],76 OD
same,OD value,[23],92 OD
same,OD value,[24],72 OD
same,OD value,[25],64 OD
same,OD value,[26],79 OD
same,OD value,[27],96 OD
same,OD value,[28],72 OD
same,OD value,[29],78 OD
same,OD value,[30],54 OD
same,OD value,[31],60 OD
same,OD value,[32],92 OD
same,OD value,[33],76 OD
same,OD value,[34],58 OD
same,OD value,[35],65 OD
same,OD value,[36],68 OD
same,OD value,[37],63 OD
same,OD value,[38],77 OD
same,OD value,[39],68 OD
same,OD value,[40],68 OD
same,OD value,[41],82 OD
same,OD value,[42],85 OD
same,OD value,[43],77 OD
same,OD value,[44],93 OD
same,OD value,[45],68 OD
same,OD value,[46],70 OD
same,OD value,[47],50 OD
same,OD value,[48],83 OD
same,OD value,[49],78 OD
same,OD value,[50],99 OD
same,OD value,[51],77 OD
same,OD value,[52],83 OD
same,OD value,[53],107 OD
same,OD value,[54],102 OD
same,OD value,[55],92 OD
same,OD value,[56],60 OD
same,OD value,[57],75 OD
same,OD value,[58],82 OD
same,OD value,[59],80 OD
same,OD value,[60],93 OD
same,OD value,[61],73 OD
same,OD value,[62],92 OD
same,OD value,[63],82 OD
same,OD value,[64],85 OD
same,OD value,[65],96 OD
same,OD value,[66],72 OD
same,OD value,[67],60 OD
same,OD value,[68],69 OD
same,OD value,[69],78 OD
same,OD value,[70],68 OD
same,OD value,[71],100 OD
same,OD value,[72],93 OD
same,OD value,[73],62 OD
same,OD value,[74],71 OD
same,OD value,[75],74 OD
